{
  "source": "patent US20230227538A1",
  "about": "(University of California, published 2023)",
  "binders": {"B1": {"name": "Nb6 (AeroNab6, NbCOV6, clone pNbCOV006A) (VHH)", "VHH": "QVQLVESGGGLVQAGGSLRLSCAASGIIFGRNAMGWYRQAPGKERELVAGITRRGSITYYADSVKGRFTISRDNAKNTVYLQMNSLKPEDTAVYYCAADPASPAPGDYWGQGTQVTVSS", "notes": "also called AeroNab6 MASC monomer; Parent clone (NbCOV6)"}, "B2": {"name": "mNb6-tri (trivalent mNb6 with a 20 amino acid linker) (VHH)", "chain": "QVQLVESGGGLVQAGGSLRLSCAASGYIFGRNAMGWYRQAPGKERELVAGITRRGSITYYADSVKGRFTISRDNAKNTVYLQMNSLKPEDTAVYYCAADPASPAYGDYWGQGTQVTVSSGGGGSGGGGSGGGGSGGGGSQVQLVESGGGLVQAGGSLRLSCAASGYIFGRNAMGWYRQAPGKERELVAGITRRGSITYYADSVKGRFTISRDNAKNTVYLQMNSLKPEDTAVYYCAADPASPAYGDYWGQGTQVTVSSGGGGSGGGGSGGGGSGGGGSQVQLVESGGGLVQAGGSLRLSCAASGYIFGRNAMGWYRQAPGKERELVAGITRRGSITYYADSVKGRFTISRDNAKNTVYLQMNSLKPEDTAVYYCAADPASPAYGDYWGQGTQVTVSS"}, "B3": {"name": "Nb6-tri (trivalent Nb6 with two 20 amino acid linkers) (VHH)", "chain": "B2 chain with Y27I, Y105P, Y166I, Y244P, Y305I, Y383P"}, "B4": {"name": "Nb11 (clone pNbCOV011A) (VHH)", "VHH": "HVQLVESGGGLVQAGGSLRLSCAVSGASAERVGWFRRAPGKEREFVAAIGANGGSTNYLDSVKGRFTISRDNAKNTVYLQMNSLKPQDTAVYYCAARNLETFDYTYWGRGTQVTVSS"}},
  "key": {"[1]": {"biological_target": "T1, SARS-CoV-2 Spike receptor binding domain (RBD) (SARS-CoV-2, UniProt P0DTC2 319-541)"}, "[2]": {"biological_target": "SARS-CoV-2 Spike protein on pseudotyped lentivirus (SARS-CoV-2, UniProt P0DTC2 14-1273)", "assay": "cell-based or functional assay"}, "[3]": {"biological_target": "T1, SARS-CoV-2 Spike receptor binding …", "assay": "SPR, biotinylated RBD on a CAP chip"}, "[4]": {"biological_target": "SARS-CoV-2 Spike protein on pseudotyped lentivirus (SARS-CoV-2, UniProt P0DTC2 14-1273)", "assay": "cell-based or functional assay", "remark": "listed apart in the source"}},
  "note": "Residue numbers refer to the chain shown, from its start. “And” between values parts separate entries of the source, which are not always exact repeats. Equal entries are not always repeated.",
  "data": [
    {"binder": "B1", "values": [
      {"measurement": "EC50", "setting": "[1]", "value": 0.19, "unit": "µM"},
      {"measurement": "IC50, inhibition of pseudovirus infection of ACE2 expressing HEK293T cells", "setting": "[2]", "value": 2, "unit": "µM"},
      {"measurement": "Kd", "setting": "[3]", "value": 0.041, "unit": "µM"}
    ]},
    {"binder": "B2", "values": [
      {"measurement": "IC50, pseudovirus infection assay", "setting": "[2]", "value": "120 pM and 5 ng/mL"}
    ]},
    {"binder": "B3", "values": [
      {"measurement": "IC50, inhibition of pseudovirus infection of ACE2 expressing HEK293T cells", "setting": "[2]", "value": 0.0012, "unit": "µM"},
      {"measurement": "fold enhancement of inhibitory activity against Nb6, pseudovirus", "setting": "[2]", "value": 2000, "unit": "fold"}
    ]},
    {"binder": "B4", "values": [
      {"measurement": "IC50, inhibition of pseudovirus infection of ACE2 expressing HEK293T cells", "setting": "[4]", "value": 2.4, "unit": "µM"}
    ]}
  ]
}
